In assay [1] the target is SARS-CoV-2 Spike. Kind of assay: SPR.
For assay [2], the target named is Rs4081. Description: ELISA.
In assay [3] the target is Rf1. Description: ELISA. On the technique in general: In an ELISA, binding on a coated surface is turned into a signal by an enzyme label.
For assay [4], the target named is RaTG13. Kind of assay: ELISA.
Assay [5] concerns the target SHC014. Description: ELISA.
The target in assay [6] is WIV1. Kind of assay: ELISA.
Assay [7] concerns the target Yunnan2011. Description: ELISA.
For assay [8], the target named is BM-4831. Description: ELISA.
The target in assay [9] is BtKY72. Description: ELISA.
Assay [10] addresses SARS-CoV. Kind of assay: ELISA.
Assay [11] deals with GX-Pangolin. Description: ELISA.
Assay [12] concerns the target RmYN02. Kind of assay: ELISA.
Assay [13] has as its target SARS-CoV Spike (SARS-CoV) (UniProt P59594). Description: SPR.

The substance ADG-2 gave a dissociation constant (Kd) in assay [1] of 0.983 pM. For the same substance, the EC50 in assay [2] is above 10 µg/mL; in assay [3], above 10 µg/mL; in assay [4], above 10 µg/mL; in assay [5], 3 ng/mL; in [6] it was 5 ng/mL; in assay [7], above 10 µg/mL. Also, the EC50 in [8] was 0.711 µg/mL; in [9], 5 ng/mL; in assay [10] it was 0.002 µg/mL; in [11] it was 0.089 µg/mL; in assay [12], above 10 µg/mL.
As to REGN10985, the Kd in assay [1] came out at 8.72 pM. Besides, the 50% effective concentration (EC50) in assay [2] was above 10 µg/mL; in [3], above 10 µg/mL; in assay [4] it was above 10 µg/mL; in assay [5], 3 ng/mL; in assay [6], 3 ng/mL; in assay [7] it was above 10 µg/mL. Further, the concentration for a half-maximal effect (EC50) in [8] was 0.72 µg/mL; in assay [9] it was 1 ng/mL; in [10] it was above 10 µg/mL; in assay [11], 3.3 µg/mL; in assay [12], above 10 µg/mL.
In turn, S2H97 showed a dissociation constant Kd in assay [1] of 4.53 pM. The EC50 is 0.009 µg/mL in assay [2]; 0.005 µg/mL in [3]; 0.008 µg/mL in assay [4]; above 10000 ng/mL in assay [5]; 540 ng/mL in [6]; 0.124 µg/mL in assay [7]. Further, the EC50 in [8] is 0.009 µg/mL; in assay [9], 6 ng/mL; in [10] it was 0.015 µg/mL; in assay [11] it was 0.026 µg/mL; in assay [12] it was 0.011 µg/mL.
In [1], S309 displayed a dissociation constant (Kd) of 1.94 pM. In addition, the EC50 was above 10 µg/mL in assay [2]; above 10 µg/mL in [3]; above 10 µg/mL in [4]; 23 ng/mL in assay [6]; above 10 µg/mL in assay [7]; 0.286 µg/mL in assay [8]. Moreover, the EC50 is above 10000 ng/mL in assay [9], 0.011 µg/mL in [10], 0.052 µg/mL in [11] and above 10 µg/mL in assay [12].
For COVA1-16, the Kd in assay [13] came to 19.5 nM; in assay [1], 1.29 pM. The EC50 in [2] was above 10 µg/mL; in assay [3], 7.07 µg/mL; in assay [4] it was 0.614 µg/mL; in assay [5], 49 ng/mL; in assay [6] it was above 10000 ng/mL; in [7] it was above 10 µg/mL. Besides, the half-maximal effective concentration (EC50) in assay [8] was above 10 µg/mL; in [9] it was above 10000 ng/mL; in [10] it was above 10 µg/mL; in assay [11], 0.043 µg/mL; in assay [12], above 10 µg/mL.
With S2X259, the dissociation constant (Kd) in assay [1] stood at 0.895 pM. Further, the EC50 is 2.29 µg/mL in assay [2]; above 10 µg/mL in assay [3]; above 10 µg/mL in assay [4]; 7 ng/mL in assay [5]; 5 ng/mL in assay [6]; above 10 µg/mL in assay [7]. Also, the EC50 was 0.005 µg/mL in assay [8]; 4 ng/mL in assay [9]; 0.016 µg/mL in assay [10]; 0.035 µg/mL in assay [11]; above 10 µg/mL in [12].
In [1], DH1047 had a dissociation constant Kd of 1.06 pM. The EC50 was 0.013 µg/mL in assay [2]; above 10 µg/mL in assay [3]; 0.003 µg/mL in assay [4]; 3 ng/mL in [5]; 3 ng/mL in [6]; 0.011 µg/mL in assay [7]. Besides, the EC50 is 0.002 µg/mL in [8]; 3 ng/mL in [9]; 0.009 µg/mL in [10]; 0.006 µg/mL in assay [11]; 0.01 µg/mL in [12].

By Kd is commonly meant the equilibrium constant for the complex coming apart. Read a high Kd as lower affinity. What is called EC50 is the midpoint of the concentration-response curve. Lower therefore signals higher potency in that assay.

The record behind these values is patent US20240343781A1.
